Assays:
[1] = target: soluble mouse FcRn (smFcRn) (mouse) (UniProt Q61559); assay: SPR, FcRn immobilized, steady state (Req)
[2] = target: shFcRn heterodimer produced by GeneArt AG (human) (UniProt P55899); assay: SPR (Biacore), immobilized shFcRn
Chain of shFcRn heterodimer produced by GeneArt AG (human) (P55899 24-290 limits assumed, chain 1 of 2): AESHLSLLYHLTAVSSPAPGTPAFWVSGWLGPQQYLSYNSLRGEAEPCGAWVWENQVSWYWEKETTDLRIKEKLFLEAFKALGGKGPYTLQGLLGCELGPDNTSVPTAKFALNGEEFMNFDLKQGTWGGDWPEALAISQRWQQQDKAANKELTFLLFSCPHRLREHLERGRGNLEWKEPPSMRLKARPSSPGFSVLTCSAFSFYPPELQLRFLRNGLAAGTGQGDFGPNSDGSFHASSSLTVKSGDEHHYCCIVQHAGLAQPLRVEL
Chain of shFcRn heterodimer produced by GeneArt AG (human) (chain, as listed by the source limits assumed, chain 2 of 2): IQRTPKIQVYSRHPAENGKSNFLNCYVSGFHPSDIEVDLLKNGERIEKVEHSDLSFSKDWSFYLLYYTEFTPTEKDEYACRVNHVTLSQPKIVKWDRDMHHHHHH

Chain of soluble mouse FcRn (smFcRn) (mouse) (Q61559 22-290): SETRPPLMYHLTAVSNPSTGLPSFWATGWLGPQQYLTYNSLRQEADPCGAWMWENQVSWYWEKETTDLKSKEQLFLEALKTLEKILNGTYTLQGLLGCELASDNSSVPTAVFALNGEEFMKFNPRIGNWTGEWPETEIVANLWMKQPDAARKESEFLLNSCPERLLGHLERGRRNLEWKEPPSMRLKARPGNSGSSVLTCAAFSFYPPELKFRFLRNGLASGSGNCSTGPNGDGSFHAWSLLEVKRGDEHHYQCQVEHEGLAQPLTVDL

recombinant human serum albumin (RECOMBUMIN) (from UniProt P02768 25-609) (ligand; other documents disagree on this pair)
Kd [1]: 86.2 µM

HSA K573P conjugated to horseradish peroxidase (from UniProt P00433 31-338)
Kd [2]: 20 nM
